{
  "source": "patent CN114591430A",
  "key": {"CHO细胞裂解液 [1]": {"target": "CHO细胞裂解液", "assay": "sandwich ELISA, coat B2, detection biotin-B6, lysate 1 mg/ml"}, "HEK293细胞裂解液 [2]": {"target": "HEK293细胞裂解液", "assay": "sandwich ELISA, coat B2, detection biotin-B6, lysate 1 mg/ml"}, "Vero细胞裂解液 [3]": {"target": "Vero细胞裂解液", "assay": "sandwich ELISA, coat B2, detection biotin-B6, lysate 1 mg/ml"}, "CHO细胞裂解液 [4]": {"target": "CHO细胞裂解液", "assay": "sandwich ELISA, coat B2, detection biotin-B6, lysate 125 ug/ml"}, "HEK293细胞裂解液 [5]": {"target": "HEK293细胞裂解液", "assay": "sandwich ELISA, coat B2, detection biotin-B6, lysate 125 ug/ml"}, "Vero细胞裂解液 [6]": {"target": "Vero细胞裂解液", "assay": "sandwich ELISA, coat B2, detection biotin-B6, lysate 125 ug/ml"}, "CHO细胞裂解液 [7]": {"target": "CHO细胞裂解液", "assay": "sandwich ELISA, coat B2, detection biotin-B6, lysate 62.5 ug/ml"}, "HEK293细胞裂解液 [8]": {"target": "HEK293细胞裂解液", "assay": "sandwich ELISA, coat B2, detection biotin-B6, lysate 62.5 ug/ml"}, "Vero细胞裂解液 [9]": {"target": "Vero细胞裂解液", "assay": "sandwich ELISA, coat B2, detection biotin-B6, lysate 62.5 ug/ml"}, "CHO细胞裂解液 [10]": {"target": "CHO细胞裂解液", "assay": "sandwich ELISA, coat B2, detection biotin-B6, lysate 15.63 ug/ml"}, "HEK293细胞裂解液 [11]": {"target": "HEK293细胞裂解液", "assay": "sandwich ELISA, coat B2, detection biotin-B6, lysate 15.63 ug/ml"}, "Vero细胞裂解液 [12]": {"target": "Vero细胞裂解液", "assay": "sandwich ELISA, coat B2, detection biotin-B6, lysate 15.63 ug/ml"}, "CHO细胞裂解液 [13]": {"target": "CHO细胞裂解液", "assay": "sandwich ELISA, coat B2, detection biotin-B6, lysate 31.25 ug/ml"}, "HEK293细胞裂解液 [14]": {"target": "HEK293细胞裂解液", "assay": "sandwich ELISA, coat B2, detection biotin-B6, lysate 31.25 ug/ml"}, "Vero细胞裂解液 [15]": {"target": "Vero细胞裂解液", "assay": "sandwich ELISA, coat B2, detection biotin-B6, lysate 31.25 ug/ml"}, "牛血清白蛋白(BSA) (bovine) [16]": {"target": "牛血清白蛋白(BSA) (bovine) (UniProt P02769)", "sequence (P02769 25-607)": "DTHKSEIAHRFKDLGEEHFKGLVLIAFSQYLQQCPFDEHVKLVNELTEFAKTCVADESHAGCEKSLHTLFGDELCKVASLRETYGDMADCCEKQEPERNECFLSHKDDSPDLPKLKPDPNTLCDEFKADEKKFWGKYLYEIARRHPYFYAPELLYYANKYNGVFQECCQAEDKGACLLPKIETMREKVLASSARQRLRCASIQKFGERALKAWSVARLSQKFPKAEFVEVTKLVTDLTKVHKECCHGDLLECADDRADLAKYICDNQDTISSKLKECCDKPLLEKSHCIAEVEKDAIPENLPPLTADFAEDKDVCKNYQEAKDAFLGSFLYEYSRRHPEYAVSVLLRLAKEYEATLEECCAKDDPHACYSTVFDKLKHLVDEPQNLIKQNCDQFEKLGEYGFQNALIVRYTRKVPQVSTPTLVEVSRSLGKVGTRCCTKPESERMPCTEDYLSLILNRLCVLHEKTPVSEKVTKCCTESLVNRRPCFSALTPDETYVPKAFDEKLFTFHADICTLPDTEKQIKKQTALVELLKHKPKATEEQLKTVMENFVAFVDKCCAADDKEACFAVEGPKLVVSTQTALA", "assay": "sandwich ELISA, coat B2 2 ug/ml, BSA 1 ng/ml, detection biotin-B3 0.2 ug/ml"}, "牛血清白蛋白(BSA) (bovine) [17]": {"target": "牛血清白蛋白(BSA) (bovine) (UniProt P02769)", "assay": "sandwich ELISA, coat B2 2 ug/ml, BSA 3 ng/ml, detection biotin-B6 0.2 ug/ml"}, "牛血清白蛋白(BSA) (bovine) [18]": {"target": "牛血清白蛋白(BSA) (bovine) (UniProt P02769)", "assay": "sandwich ELISA, coat B2 2 ug/ml, BSA 12 ng/ml, detection biotin-B6 0.2 ug/ml"}, "牛血清白蛋白(BSA) (bovine) [19]": {"target": "牛血清白蛋白(BSA) (bovine) (UniProt P02769)", "assay": "sandwich ELISA, coat B2 2 ug/ml, BSA 24 ng/ml, detection biotin-B6 0.2 ug/ml"}, "牛血清白蛋白(BSA) (bovine) [20]": {"target": "牛血清白蛋白(BSA) (bovine) (UniProt P02769)", "assay": "sandwich ELISA, coat B2 2 ug/ml, BSA 48 ng/ml, detection biotin-B6 0.2 ug/ml"}, "牛血清白蛋白(BSA) (bovine) [21]": {"target": "牛血清白蛋白(BSA) (bovine) (UniProt P02769)", "assay": "sandwich ELISA, coat B2 2 ug/ml, BSA 1.5 ng/ml, detection biotin-B6 0.2 ug/ml"}, "牛血清白蛋白(BSA) (bovine) [22]": {"target": "牛血清白蛋白(BSA) (bovine) (UniProt P02769)", "assay": "ELISA, BSA coated at 1 ug/ml, biotin-labelled antibody at dilution 1K, HRP-avidin"}, "牛血清白蛋白(BSA) (bovine) [23]": {"target": "牛血清白蛋白(BSA) (bovine) (UniProt P02769)", "assay": "ELISA, BSA coated at 1 ug/ml, biotin-labelled antibody at dilution 2K, HRP-avidin"}, "牛血清白蛋白(BSA) (bovine) [24]": {"target": "牛血清白蛋白(BSA) (bovine) (UniProt P02769)", "assay": "ELISA, BSA coated at 1 ug/ml, biotin-labelled antibody at dilution 32K, HRP-avidin"}, "牛血清白蛋白(BSA) (bovine) [25]": {"target": "牛血清白蛋白(BSA) (bovine) (UniProt P02769)", "assay": "ELISA, BSA coated at 1 ug/ml, biotin-labelled antibody at dilution 128K, HRP-avidin"}, "牛血清白蛋白(BSA) (bovine) [26]": {"target": "牛血清白蛋白(BSA) (bovine) (UniProt P02769)", "assay": "ELISA, BSA coated at 1 ug/ml, biotin-labelled antibody at dilution 256K, HRP-avidin"}, "牛血清白蛋白(BSA) (bovine) [27]": {"target": "牛血清白蛋白(BSA) (bovine) (UniProt P02769)", "assay": "sandwich ELISA, coat B2 2 ug/ml, BSA 6 ng/ml, detection biotin-B6 0.2 ug/ml, mean of A and B"}, "牛血清白蛋白(BSA) (bovine) [28]": {"target": "牛血清白蛋白(BSA) (bovine) (UniProt P02769)", "assay": "sandwich ELISA, coat B2 2 ug/ml, BSA 48 ng/ml, detection biotin-B6 0.2 ug/ml, mean of A and B"}, "牛血清白蛋白(BSA) (bovine) [29]": {"target": "牛血清白蛋白(BSA) (bovine) (UniProt P02769)", "assay": "sandwich ELISA, coat B2 2 ug/ml, BSA 1 ng/ml (positive sample), detection biotin-B6 0.2 ug/ml"}, "牛血清白蛋白(BSA) (bovine) [30]": {"target": "牛血清白蛋白(BSA) (bovine) (UniProt P02769)", "assay": "indirect ELISA, BSA coated at 1 ug/ml, purified antibody at dilution 64K, HRP goat anti-mouse IgG"}, "牛血清白蛋白(BSA) (bovine) [31]": {"target": "牛血清白蛋白(BSA) (bovine) (UniProt P02769)", "assay": "indirect ELISA, BSA coated at 1 ug/ml, purified antibody at dilution 128K, HRP goat anti-mouse IgG"}, "牛血清白蛋白(BSA) (bovine) [32]": {"target": "牛血清白蛋白(BSA) (bovine) (UniProt P02769)", "assay": "indirect ELISA, BSA coated at 1 ug/ml, purified antibody at dilution 512K, HRP goat anti-mouse IgG"}},
  "note": "Where “and” joins values, the source holds several entries; their conditions need not be identical. Equal values may be shown once.",
  "data": [
    {"binder": "BSA抗体B2 (antibody, V domains shown) VH: VKLQESGGGLVKPGGSLKLSCAASGFTFSLYDESWVRQTPEKRLEWVAEIFLGVYRYVPESKVRFTMSRDNAKNTLYLQMSSLRSEDTAMYYCVRLCYWEPEVKKCWGQGTTVTVSS VL: DIELTQSPLTLSVTIGQPASISCESDLSLKESLDWLLQRPGQSPKRLIYEDLNADCGVPDRFTGSGSGTDSTLKISRVEAEDLGVYYCEIKGTFRWSFGGGTKLEIK", "values": [
      {"measurement": "OD450", "setting": "CHO细胞裂解液 [1]", "result": 0.132},
      {"measurement": "OD450", "setting": "HEK293细胞裂解液 [2]", "result": 0.142},
      {"measurement": "OD450", "setting": "Vero细胞裂解液 [3]", "result": 0.129},
      {"measurement": "OD450", "setting": "CHO细胞裂解液 [4]", "result": 0.14},
      {"measurement": "OD450", "setting": "HEK293细胞裂解液 [5]", "result": 0.14},
      {"measurement": "OD450", "setting": "Vero细胞裂解液 [6]", "result": 0.132},
      {"measurement": "OD450", "setting": "CHO细胞裂解液 [7]", "result": 0.129},
      {"measurement": "OD450", "setting": "HEK293细胞裂解液 [8]", "result": 0.142},
      {"measurement": "OD450", "setting": "Vero细胞裂解液 [9]", "result": 0.137},
      {"measurement": "OD450", "setting": "CHO细胞裂解液 [10]", "result": 0.141},
      {"measurement": "OD450", "setting": "HEK293细胞裂解液 [11]", "result": 0.136},
      {"measurement": "OD450", "setting": "Vero细胞裂解液 [12]", "result": 0.136},
      {"measurement": "OD450", "setting": "CHO细胞裂解液 [13]", "result": 0.136},
      {"measurement": "OD450", "setting": "HEK293细胞裂解液 [14]", "result": 0.134},
      {"measurement": "OD450", "setting": "Vero细胞裂解液 [15]", "result": 0.142},
      {"measurement": "OD450", "setting": "牛血清白蛋白(BSA) (bovine) [16]", "result": "0.342 and 0.346"},
      {"measurement": "OD450", "setting": "牛血清白蛋白(BSA) (bovine) [17]", "result": "0.509 and 0.515"},
      {"measurement": "OD450", "setting": "牛血清白蛋白(BSA) (bovine) [18]", "result": "1.01 and 1"},
      {"measurement": "OD450", "setting": "牛血清白蛋白(BSA) (bovine) [19]", "result": "1.51 and 1.5"},
      {"measurement": "OD450", "setting": "牛血清白蛋白(BSA) (bovine) [20]", "result": "2.2 and 2.21"},
      {"measurement": "OD450", "setting": "牛血清白蛋白(BSA) (bovine) [21]", "result": "0.404 and 0.412"},
      {"measurement": "OD450", "setting": "牛血清白蛋白(BSA) (bovine) [22]", "result": 2.3},
      {"measurement": "OD450", "setting": "牛血清白蛋白(BSA) (bovine) [23]", "result": 2.21},
      {"measurement": "OD450", "setting": "牛血清白蛋白(BSA) (bovine) [24]", "result": 1.22},
      {"measurement": "OD450", "setting": "牛血清白蛋白(BSA) (bovine) [25]", "result": 0.821},
      {"measurement": "OD450", "setting": "牛血清白蛋白(BSA) (bovine) [26]", "result": 0.509},
      {"measurement": "OD450 (平均值)", "setting": "牛血清白蛋白(BSA) (bovine) [27]", "result": 0.688},
      {"measurement": "OD450 (平均值)", "setting": "牛血清白蛋白(BSA) (bovine) [28]", "result": 2.21},
      {"measurement": "OD450", "setting": "牛血清白蛋白(BSA) (bovine) [29]", "result": "0.392 and 0.389"},
      {"measurement": "OD450", "setting": "牛血清白蛋白(BSA) (bovine) [30]", "result": 0.335},
      {"measurement": "OD450", "setting": "牛血清白蛋白(BSA) (bovine) [31]", "result": 0.357},
      {"measurement": "OD450", "setting": "牛血清白蛋白(BSA) (bovine) [32]", "result": 0.137}
    ]}
  ]
}
